What was measured:
[1] = biological target: Pfs25-IMX313-CTag (Plasmodium falciparum) (UniProt P13829); assay: SEC
[2] = biological target: Pfs25-IMX313-CTag (Plasmodium falciparum) (UniProt P13829); assay: non-reducing SDS-PAGE; Coomassie-stained gel, non-reduced against reduced sample
SpyCatcher-AP205 = assay: reducing SDS-PAGE of the covalent conjugate

Row | Substance | stoichiometry N [1] | stoichiometry N [2] | percent coupling (coat protein molecules linked to Pfs25-SpyTag) (SpyCatcher-AP205) [%]
1 | Pfs25-IMX313-CTag (from UniProt P13829 22-193) | 7 | 7 | 
2 | Pfs25-SpyTag-CTag (from UniProt P13829 22-193) |  |  | 100
